This note sets out measurements from publication PMC3600821.

The target of the assay is Skeletal muscle actin (F-actin) (rabbit) (UniProt P68135).
Take “S619C-IQ (S619C construct extended to include one IQ domain) (from UniProt P08799 1-790) (domain or fragment)”: the actin-activated Mg-ATPase: K (ATPase) (the actin concentration giving V=Vmax/2) amounted to 17.3 µM and the actin-activated Mg-ATPase: Vmax/K (ATPase) (catalytic efficiency) stood at 180000 M⁻¹ s⁻¹.
In the case of “Muscle S1 (skeletal muscle myosin II subfragment 1) (domain or fragment)”, the actin-activated Mg-ATPase: K (ATPase) (the actin concentration giving V=Vmax/2) worked out at 15.8 µM and the actin-activated Mg-ATPase: Vmax/K (ATPase) (catalytic efficiency) is 1.23e+06 M⁻¹ s⁻¹.
In the case of “M761-2R (761-aa wild-type Dictyostelium myosin II catalytic domain fused to two α-actinin repeats) (from UniProt P08799 1-761)”, the actin-activated Mg-ATPase: K (ATPase) (the actin concentration giving V=Vmax/2) is 59 µM and the actin-activated Mg-ATPase: Vmax/K (ATPase) (catalytic efficiency) turned out to be 130000 M⁻¹ s⁻¹.
